In the supplement of paper PMC9170038:

Key:
MS2 coat protein [1] = experiment: apparent KD of MS2 coat protein; designed switch direction (-1 OFF switch, 1 ON switch): 1; higher = weaker reporter binding
In short: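 Designed RNA switches were transcribed on Illumina chips by stalled E. coli RNA polymerase and titrated with SNAP-549-labelled MS2 coat protein from 0.7 or 1.5 nM, doubling to 3 µM. Step length ran from 0.8–1.5 h at the lowest concentration to 10–20 min at the highest. The apparent KD is the median over clusters for each design, from curve-fitted normalised cluster fluorescence.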

MS2 coat protein [2] = experiment: apparent KD of MS2 coat protein; higher = weaker reporter binding; settings: Eterna round: R107
In short: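 Titrations with SNAP-549-labelled MS2 coat protein ran in twofold steps from 0.7 or 1.5 nM to 3 µM, each step taking 0.8–1.5 h at the start and 10–20 min toward the end. The targets were designed RNA switches transcribed on-chip from Illumina sequencing clusters, held in 100 mM Tris-HCl pH 7.5, 80 mM KCl, 4 mM MgCl2, without or with constant ligand. Apparent KD was taken per design as the median of normalised cluster binding-curve fits.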

[3] = Eterna round: R95, input ligand: FMN 200 uM
[4] = Eterna round: R95, input ligand: microRNA oligo, concentration not stated
[5] = Eterna round: R95, input ligand: none
[6] = input ligand: microRNA oligo, concentration not stated
[7] = input ligand: theophylline 20 uM
[8] = input ligand: tryptophan 2.4 mM
[9] = input ligand: theophylline 2 mM

Sequence | apparent KD of MS2 coat protein (MS2 coat protein [1]; [3]) | apparent KD of MS2 coat protein (MS2 coat protein [1]; [4]) | apparent KD of MS2 coat protein (MS2 coat protein [1]; [5]) | apparent KD of MS2 coat protein (MS2 coat protein [1]; input ligand: FMN 200 uM) | apparent KD of MS2 coat protein (MS2 coat protein [1]; [6]) | apparent KD of MS2 coat protein (MS2 coat protein [1]; input ligand: none) | further results
GCUUCACAUGAGGAUCACCCAUGUCGUCGGAGUCGAGGAUAUGGUAACUGUAAACAGUUGCCAGAAGGCGAGGAGC [SS1 - Son of Teenbexe v10] (puzzle: Same State 1) | 0.0232 µM | 0.0244 µM | 0.026 µM | – | – | – | –
GGUCCGGCCUGAGCUGGACCGGAGCAUGUACAUGAGGAUCACCCAUGUCAUGUACAGGCUUCUUGCUCGUCUUGUUG [JL-shm-2.16 JL Mod] (Eterna round: R96, puzzle: Sensor for hsa-mir-208a) | – | – | – | 0.282 µM | 0.0148 µM | 0.13 µM | –
UUACUCAUGUAAGGAUAUGCAGCCGUUUCGGCUGCAGAAGGUACUAUAAUACAUGAGGAUCACCCAUGUCUAUAAAAUAAAGAC [Mat - Same State NG 1 - JL mod - D81] (Eterna round: R96, puzzle: Same State NG 1) | – | – | – | 0.0695 µM | 0.024 µM | 0.0325 µM | –
AGCUAGUACCGAGGAUAUACGUACAUGAGGAUCACCCAUGUAUACAUGAUUAAAUGAGACUACAUGUAGAAGGCGGUACUAGCA [Mat - Same State NG 2 - JL mod - D48] (Eterna round: R96, puzzle: Same State NG 2) | – | – | – | 0.015 µM | 0.0271 µM | 0.0481 µM | –
AGCGCGAUCUCGCAGGAUAUCCACAUUCCUACAUGAGGAUCACCCAUGUCGCUGCAGGAUAUUAGGGAGAAGGGUGAUGUCGCGC [Arxeinor] (puzzle: Same State 2) | 0.0214 µM | 0.0326 µM | 0.0348 µM | – | – | – | –
UUUAGUUGCGGGCAGGAUAUGUGUUAAAAUACAUGAGGAUCACCCAUGUGCGGGUAUAACACCCGACAGAAGGGCCAAUCGCGAC [Laonerce - 2] (puzzle: Same State 2) | 0.0218 µM | 0.0564 µM | 0.0679 µM | – | – | – | –
ACAUGAGGAUCACCCAUGUAUGCUCAGGAAACUGUGCAUCGUGAGGAUAUGGAUCCUAAUUGGAUCCAGAAGGCAUGUAUUAUU [Fiskers NG3ss - 27] (Eterna round: R96, puzzle: Same State NG 3) | – | – | – | 0.321 µM | 0.0239 µM | 0.153 µM | –
UGUUGUAUUACAGGAUAUCUAUUGUUUUUACUUAGAGAAGGGUAUUCACAUGAGGAUCACCCAUGUAUAUACGAGGAAGUUGUG [JMF's solution 83] (Eterna round: R96, puzzle: Same State NG 1) | – | – | – | 0.0392 µM | 0.031 µM | 0.0418 µM | –
AGAUCAUGACGAGGAUAUGCCACAUGAGGAUCACCCAUGUAUGUGGUAGGACGCGUACGUCCAAAGCAGAAGGCGUCGUGGUCA [JL SSNG2 1.01] (Eterna round: R96, puzzle: Same State NG 2) | – | – | – | 0.0172 µM | 0.0285 µM | 0.0555 µM | –
GGAGCCGGCACUGAGGAUAUUCAUAUUAAAACAUGAGGAUCACCCAUGUAGGCCAGAAGGCCAUGGGAGAAGGCAGGUCGGCCCG [Bibimoar - 7] (puzzle: Same State 2) | 0.0467 µM | 0.211 µM | 0.416 µM | – | – | – | –
UAGUUUCAACGAGGAUAUAAUAGGUUCUAUUCGUGAUAUUGCGUACAUGAGGAUCACCCAUGUUAUUAGAAGGCGUAUGGGUUU [JR_SSNG2_Sub086] (Eterna round: R96, puzzle: Same State NG 2) | – | – | – | 0.0899 µM | 0.0598 µM | 0.0779 µM | –
GGAAUGUGAUGUUACAUGAGGAUCACCCAUGUAGUGACAACUAAGGAUAUCUGAAAAGAAGGAGAGGAGAAGGUAGGAUCACAA [AK SSNG3-V2-15] (Eterna round: R96, puzzle: Same State NG 3) | – | – | – | 0.0308 µM | 0.0392 µM | 0.0589 µM | –
GCUACCAAUAAAGCCAACAUGAGGAUCACCCAUGUAUGUUGGUAGGAUAUCGUUUGCAAAGCAAACGAGAAGGGCUAAGGUAGC [Mat - Same State NG 3 - JL Mod - D76] (Eterna round: R96, puzzle: Same State NG 3) | – | – | – | 0.0391 µM | 0.0282 µM | 0.0439 µM | –
UGCCAUUGUAUAUUGGUGCAAGCUUUUUGACAUGAGGAUCACCCAUGUACUCGUCUUAUGUGCAGUCCGUAGACUGC [JL-shm-2.23 Brourd mod] (puzzle: Sensor for hsa-mir-208a) | 0.024 µM | 0.0135 µM | 0.0228 µM | – | – | – | –
AAAAGCGACGUAGGAUAUCCUCUACAUGCGUAAGGAGAAGGAUGCGCAACAUGAGGAUCACCCAUGUAAAACCAGCACUACUGG [Zalaendi] (Eterna round: R96, puzzle: Same State NG 1) | – | – | – | 0.0531 µM | 0.0326 µM | 0.0449 µM | –
UUAAUGAUGUUAGGAUAUACAUGAGGAAUCCUCGUAGAAGGAACAUGACAUGAGGAUCACCCAUGUAGCGCUCCGUAGAGCGCA [JL SSNG1 1.18] (Eterna round: R96, puzzle: Same State NG 1) | – | – | – | 2.46 µM | 0.0185 µM | 0.0603 µM | –
GCGAGCGUACUUGCUACAUGAGGAUCACCCAUGUUUACUGGACAGGAUAUGGUACCGUUUCGGUACCAGAAGGGUUCAUCAUGU [JL SSNG3 3.69] (Eterna round: R96, puzzle: Same State NG 3) | – | – | – | 0.278 µM | 0.248 µM | 0.597 µM | –
CUAUCUACAGGUGUCUUUGCUCGUCUUAUACAUGAGGAUCACCCAUGUUAUAGCCCGGUGCUUGCGCUGGGCUGAUU [JL ViennaUCT Tearor mod 6] (puzzle: Sensor for hsa-mir-208a) | 0.0798 µM | 0.0132 µM | 0.0957 µM | – | – | – | –
GGAAGGAGGUCAGGAUAUGAAUGGAUGGGACAUGAGGAUCACCCAUGUAAUAGAAGAAAUCUACAUUAGAAGGGACAAGGAAGG [AK SSNG2-V2-5] (Eterna round: R96, puzzle: Same State NG 2) | – | – | – | 0.105 µM | 0.0832 µM | 0.13 µM | –
AACCGACAUGAGGAUCACCCAUGUAAAUGCAGGGCAGGAUAUCAAUCGGGAGGCCGAAAAUGAGAAGGGCCUAAAA [Onedte] (puzzle: Same State 1) | 0.0469 µM | 0.25 µM | 0.839 µM | – | – | – | –
GACUCUAGAGGAGGAUAUGCAGAGGAUCACCCUGUAGAAGGCCUCAUAAGGAGGAUAUGCAGAGGAUCACCCUGUAGAAGGCCU [pwkr ssNG DX.20] (Eterna round: R96, puzzle: Same State NG 1) | – | – | – | 0.17 µM | 0.0855 µM | 0.272 µM | –
AAUUUGGGACAUGAGGAUCACCCAUGUAUUAUAAAUGGGACAAGUUUUUUGCUCGUCUUAUACAUGGGUGAAAAUCU [Test] (puzzle: Sensor for hsa-mir-208a version 2) | 0.0178 µM | 0.0217 µM | 0.0237 µM | – | – | – | –
CUAUGACAUGAGGAUCACCCAUGUGAUAAUUUCAUAGGAUAUACGGCGCCGUUAAGGGCCGUAGAAGGGUGAUCGA [Veonti] (puzzle: Same State 1) | 0.0354 µM | 0.0307 µM | 0.0229 µM | – | – | – | –
ACAUGAGACUCAGGAUAUCAUGUACCUACAUGUGACAUGAGGAUCACCCAUGUGGUAAGUAUGACUGAGAAGGGAGAGAUAUGU [Equivalance 88 - Jieux - Same State NG 2] (Eterna round: R96, puzzle: Same State NG 2) | – | – | – | 0.0637 µM | 0.159 µM | 0.248 µM | –
GUGGUGUAGAUACAGGAUAUGUUGCUCGUAACAUGAGGAUCACCCAUGUAUCUAUGAGAAUAAAUGCAGAAGGGUGCACACCACU [Mat - Same State 2 - Mod of UCT - D74] (Eterna round: R96, puzzle: Same State 2) | – | – | – | 0.0261 µM | 0.197 µM | 0.489 µM | –
UAUAUAUUGAUGGAUACCAGCAGAGAAAACGUUUAUCCUAACAUGAGGAUCACCCAUGUAUGCCCUUGGCAGCUGUUGAUAUAUA [8.K] | – | – | – | – | – | – | apparent KD of MS2 coat protein (MS2 coat protein [2]; input ligand: arginine 13.2 mM): 0.0217 µM; apparent KD of MS2 coat protein (MS2 coat protein [2]; [7]): 0.0287 µM; apparent KD of MS2 coat protein (MS2 coat protein [2]; [8]): 0.0184 µM
AGUUGACGAAAGUCAGCAACAUGAUCCGAAGGAGCGGGCGAAAGCCCAGGUAGGUCGCGGACAUGAGGAUCACCCAUGUCUCCUU [MAT - Exclusion Arginine A - Mod of Eli - D12] | – | – | – | – | – | – | apparent KD of MS2 coat protein (MS2 coat protein [2]; input ligand: arginine 13.2 mM): 0.0378 µM; apparent KD of MS2 coat protein (MS2 coat protein [2]; input ligand: none): 0.0734 µM; apparent KD of MS2 coat protein (MS2 coat protein [2]; [7]): 0.0788 µM; apparent KD of MS2 coat protein (MS2 coat protein [2]; [9]): 0.0926 µM; apparent KD of MS2 coat protein (MS2 coat protein [2]; [8]): 0.0707 µM
CUGACAUGAGGAUCACCCAUGUACACUGAAGGAGCGUCGAGAAUGACAGGUAGGUCGCAGAAUAAUAAUGGUGAUGUUUAGGUAA [Exclusion Arginine A GF 2] | – | – | – | – | – | – | apparent KD of MS2 coat protein (MS2 coat protein [2]; input ligand: arginine 13.2 mM): 0.024 µM; apparent KD of MS2 coat protein (MS2 coat protein [2]; input ligand: none): 0.0208 µM; apparent KD of MS2 coat protein (MS2 coat protein [2]; [7]): 0.0341 µM; apparent KD of MS2 coat protein (MS2 coat protein [2]; [9]): 0.0263 µM; apparent KD of MS2 coat protein (MS2 coat protein [2]; [8]): 0.0234 µM
AGAGUUAGACAAAAGUCUAGCUCACCAGAAGGAGCGUCCGAAAGGACAGGUAGGUCGCUGGUACGUGAGGAUCACCCACGUUCCU [ArgAS 18 #OpenEnded #AlternativeMS2] | – | – | – | – | – | – | apparent KD of MS2 coat protein (MS2 coat protein [2]; input ligand: arginine 13.2 mM): 0.0216 µM; apparent KD of MS2 coat protein (MS2 coat protein [2]; input ligand: none): 0.0246 µM; apparent KD of MS2 coat protein (MS2 coat protein [2]; [7]): 0.0263 µM; apparent KD of MS2 coat protein (MS2 coat protein [2]; [9]): 0.0284 µM; apparent KD of MS2 coat protein (MS2 coat protein [2]; [8]): 0.0231 µM
